These results are taken from US20080286275A1 (ISTITUTO DI RICERCHE DI BIOLOGIA MOLECOLARE P ANGELETTI S P …, published 2008).

Sequences and labels used below:
T1: human scavenger receptor class B type I (SR-B1) (human, UniProt Q8WTV0 1-467)
T1 construct: The same entry is used for all three; also called SR-BI; SR-B1 receptor
T1 sequence: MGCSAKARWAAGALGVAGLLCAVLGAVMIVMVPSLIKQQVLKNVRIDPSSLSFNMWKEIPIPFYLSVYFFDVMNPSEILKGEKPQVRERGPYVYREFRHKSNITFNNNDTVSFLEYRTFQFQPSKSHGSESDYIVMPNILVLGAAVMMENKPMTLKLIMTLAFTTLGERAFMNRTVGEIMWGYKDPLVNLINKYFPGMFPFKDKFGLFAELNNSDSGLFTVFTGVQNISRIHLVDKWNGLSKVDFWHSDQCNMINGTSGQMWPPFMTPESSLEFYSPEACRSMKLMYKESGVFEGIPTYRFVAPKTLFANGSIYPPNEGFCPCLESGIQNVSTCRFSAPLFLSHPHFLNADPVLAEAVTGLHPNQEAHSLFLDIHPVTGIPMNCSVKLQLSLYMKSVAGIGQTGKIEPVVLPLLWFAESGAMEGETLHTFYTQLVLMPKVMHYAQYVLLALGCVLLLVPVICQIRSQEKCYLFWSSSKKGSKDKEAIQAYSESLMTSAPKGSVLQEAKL

B1: single-chain antibody of SEQ ID NO: 3 (scFv)
scFv: EVQLVETGAEVKKPGSSVKVSCKASGDTLSSHAIIWVRQAPGQGLEWMGGIIPIFRTVNYAQKFQGRVTITADDSTSTAYMELNDLRSEDTAVYYCAKTLNEGLPWDYWGQGTLVTVSSGGGGSGGGGSGGGGSAQSVLTQPPGASGAPGQRVTISCSGDSSNIESYAVNWYQQVPGMAPKLLIYRDNQRPSGVPDRFSGSRSGTSASLAISGLQSEDEADYYCGSWDDNLNGPTFGGGTKVTVL
notes: VH-linker(Ser/Gly)-VL from the CAT phage library CS, produced outside the phage context
B2: single-chain antibody of SEQ ID NO: 1 (scFv)
scFv: EVQLVQSGAEVRKPGATVKISCKLTGDTFTDYFIFWLQLAPGKGLQWMGLIDPKDAQTIYAEKFQGRVAITADTSTDTAYMEVSSLRSEDTAVYYCATDSVGAAGFDVWGRGTMVTVSSGGGGSGGGGSGGGGSALPVLTQPPSASGAPGQRVTFSCSGSGSNIGSYTVNWYQQLPGAAPRLLMHTTDQRASGAPDRFSGSKSGTSASLAITGLQSEDEADYFCAAWDDSLDGPVFGGGTKLTVL
notes: as for B1
B3: single-chain antibody of SEQ ID NO: 2 (scFv)
scFv: QVQLQESGPGLVKPSETLSLNCTVSGGSISSSSYYWGWIRQPPGKGLEWIGSVYYTGNTYYNPSLKSRVTMSVDTSKNQFSLKLNSVTAADTAVYYCARHVLGGGWEVSQRFDYWGRGTLVTVSSGGGGSGGGGSGGGGSAQSVLTQPPSASGTPGQRVTISCSGSSSNIGSNPVNWYQQLPGTAPKLLIHTNNQRPSGVPDRFSGSKSGTSASLAISGLLSEDEADYYCAAWDDSLNAYVFGTGTKVTVL
notes: VH-linker(Ser/Gly)-VL from the CAT phage library CS, produced outside the phage context; also called scFVC11
B4: single-chain antibody of SEQ ID NO: 4 (scFv)
scFv: EVQLVQSGAEVRKPGTAVKISCKVAGDTFTDYFIYWLQQAPGKGPEWMGLIDPKDAQTIYAEKFQGRVAITADTSTDTAYMELSSLKSEDTAVYYCATDSVGSAGFDVWGQGTLVTVSSGGGGSGGGGSGGGGSALPVLTQPPSASGAPGQRVTFSCSGSGSNIGSYTVNWYQQLPGAAPRLLMHTTDQRASGVPDRFSGSKSGTSASLAITGLQSEDEADYFCAAWDDSLDGPVFGGGTKLTVL
notes: as for B1
B5: IgG4 molecule containing SEQ ID NO: 4 variable regions (antibody, V domains shown)
VH: EVQLVQSGAEVRKPGTAVKISCKVAGDTFTDYFIYWLQQAPGKGPEWMGLIDPKDAQTIYAEKFQGRVAITADTSTDTAYMELSSLKSEDTAVYYCATDSVGSAGFDVWGQGTLVTVSS
VL: LPVLTQPPSASGAPGQRVTFSCSGSGSNIGSYTVNWYQQLPGAAPRLLMHTTDQRASGVPDRFSGSKSGTSASLAITGLQSEDEADYFCAAWDDSLDGPVFGGGTKLTVL
notes: The primers may have added amino acids
B6: IgG4 molecule containing SEQ ID NO: 2 variable regions (antibody, V domains shown)
VH: QVQLQESGPGLVKPSETLSLNCTVSGGSISSSSYYWGWIRQPPGKGLEWIGSVYYTGNTYYNPSLKSRVTMSVDTSKNQFSLKLNSVTAADTAVYYCARHVLGGGWEVSQRFDYWGRGTLVTVSS
VL: not shown
notes: as for B5

For one assay, the target named is T1, human scavenger receptor class B type I …. Description: FACS competition on HepG2 cells, scFv concentration varied, competitor soluble E2.
Turning to B1, the binding result is given as “binds”. The same measure, in the same setting: then B2, with “binds”.

On to B3, for which the binding result is on record as “binds”.

As to B4, the binding result is given as “binds”.

A further assay has the same target. Nature of the assay: FACS competition on Cho7s cells expressing human SR-B1, IgG concentration varied (60-12-2.4 µg/ml), competitor His-tagged soluble E2.
On to B5, for which the binding result is “binds”. With B6, the binding result is given as “binds”.
